Drawing on patent US20150344570A1 (published 2015), this text covers He/Con_3a for 27 molecules.

The assay addresses T1, FcγRIIIa extracellular domain with C-terminal His tag (human, UniProt P08637 17-208).
T1 construct: extracellular domain; also called FcgRIIIa; 3a; not shown: His tag attached to the C terminus
Kind of assay: SPR Biacore, captured antibody, FcγR analyte, relative binding. The procedure:
Analysis of interaction between objective antibody and the FcγR was carried out using Biacore T100 (GE Healthcare). HBS-EP+ (GE Healthcare) was used as the running buffer, and the measurement temperature was set to 25° C. Chips produced by immobilizing the antigen peptide by the amine coupling method to a Series S Sencor Chip CM5 (GE Healthcare), or alternatively, chips produced by allowing preliminarily biotinylated antigen peptides to interact with and immobilize onto a Series S Sensor Chip SA (certified) (GE Healthcare) were used. Antibodies of interest were captured onto an antigen peptide-immobilized chip, and allowed to interact to each FcγR diluted with running buffer. To regenerate and repeatedly use the chip, the antibodies captured on the chip were washed off by reacting 10 mM glycine-HCl, pH 1.5.
For orientation: In SPR one partner is held on a chip, and binding of the other changes the refractive index at the surface.

T1 sequence (P08637 17-208): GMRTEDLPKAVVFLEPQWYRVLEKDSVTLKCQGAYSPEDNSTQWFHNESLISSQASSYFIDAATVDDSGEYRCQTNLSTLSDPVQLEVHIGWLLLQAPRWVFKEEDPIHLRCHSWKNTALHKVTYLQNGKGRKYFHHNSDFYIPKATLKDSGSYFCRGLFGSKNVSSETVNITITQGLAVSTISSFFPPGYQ

B1: GpH7-A5/GpH7-B3 variant K334_19Q/GpL16-k0 (antibody, human IgG1, kappa)
heavy 1: not shown
heavy 2: not shown
light: DIVMTQSPLSLPVTPGEPASISCQASESLVHSNRNTYLHWYLQKPGQSPQLLIYKVSNRFSGVPDRFSGSGSGTDFTLKISRVEAEDVGVYYCSQNTHVPPTFGQGTKVEIERTVAAPSVFIFPPSDEQLKSGTASVVCLLNNFYPREAKVQWKVDNALQSGNSQESVTEQDSKDSTYSLSSTLTLSKADYEKHKVYACEVTHQGLSSPVTKSFNRGEC
notes: also called He Ab K334_19Q
Take B1: the He/Con_3a is 136 % of HeCon Ab GpH7-A5/GpH7-B3/GpL16-k0 (=100).

B2: GpH7-A5/GpH7-B3 variant S267_09D/GpL16-k0 (antibody, human IgG1, kappa)
heavy 1: not shown
heavy 2: not shown
light: B1 light
notes: also called He Ab S267_09D
Regarding B2, the He/Con_3a was 181 % of HeCon Ab GpH7-A5/GpH7-B3/GpL16-k0 (=100).

B3: GpH7-A5/GpH7-B3 variant I332_01G/GpL16-k0 (antibody, human IgG1, kappa)
heavy 1: not shown
heavy 2: not shown
light: B1 light
notes: also called He Ab I332_01G
On to B3, for which the He/Con_3a is 111 % of HeCon Ab GpH7-A5/GpH7-B3/GpL16-k0 (=100).

B4: GpH7-A5/GpH7-B3 variant K326_07I/GpL16-k0 (antibody, human IgG1, kappa)
heavy 1: not shown
heavy 2: not shown
light: B1 light
notes: also called He Ab K326_07I
As for B4, the He/Con_3a was 139 % of HeCon Ab GpH7-A5/GpH7-B3/GpL16-k0 (=100).

B5: GpH7-A5/GpH7-B3 variant I336_02A/GpL16-k0 (antibody, human IgG1, kappa)
heavy 1: not shown
heavy 2: not shown
light: B1 light
notes: also called He Ab I336_02A
For the molecule B5, the He/Con_3a was 111 % of HeCon Ab GpH7-A5/GpH7-B3/GpL16-k0 (=100).

B6: GpH7-A5/GpH7-B3 variant I336_18N/GpL16-k0 (antibody, human IgG1, kappa)
heavy 1: not shown
heavy 2: not shown
light: B1 light
notes: also called He Ab I336_18N
For B6, the He/Con_3a is 104 % of HeCon Ab GpH7-A5/GpH7-B3/GpL16-k0 (=100).

B7: GpH7-A5/GpH7-B3 variant I332_09D/GpL16-k0 (antibody, human IgG1, kappa)
heavy 1: not shown
heavy 2: not shown
light: B1 light
notes: also called He Ab I332_09D
On to B7, for which the He/Con_3a is 207 % of HeCon Ab GpH7-A5/GpH7-B3/GpL16-k0 (=100).

B8: GpH7-A5/GpH7-B3 variant I336_13S/GpL16-k0 (antibody, human IgG1, kappa)
heavy 1: not shown
heavy 2: not shown
light: B1 light
notes: also called He Ab I336_13S
As to B8, the He/Con_3a is 102 % of HeCon Ab GpH7-A5/GpH7-B3/GpL16-k0 (=100).

B9: GpH7-A5/GpH7-B3 variant K334_16H/GpL16-k0 (antibody, human IgG1, kappa)
heavy 1: not shown
heavy 2: not shown
light: B1 light
notes: also called He Ab K334_16H
As for B9, the He/Con_3a was 134 % of HeCon Ab GpH7-A5/GpH7-B3/GpL16-k0 (=100).

B10: GpH7-A5/GpH7-B3 variant I332_15Y/GpL16-k0 (antibody, human IgG1, kappa)
heavy 1: not shown
heavy 2: not shown
light: B1 light
notes: also called He Ab I332_15Y
Turning to B10, the He/Con_3a is 101 % of HeCon Ab GpH7-A5/GpH7-B3/GpL16-k0 (=100).

B11: GpH7-A5/GpH7-B3 variant I332_19Q/GpL16-k0 (antibody, human IgG1, kappa)
heavy 1: not shown
heavy 2: not shown
light: B1 light
notes: also called He Ab I332_19Q
With B11, the He/Con_3a was 110 % of HeCon Ab GpH7-A5/GpH7-B3/GpL16-k0 (=100).

B12: GpH7-A5/GpH7-B3 variant K334_15Y/GpL16-k0 (antibody, human IgG1, kappa)
heavy 1: not shown
heavy 2: not shown
light: B1 light
notes: also called He Ab K334_15Y
For the molecule B12, the He/Con_3a is 141 % of HeCon Ab GpH7-A5/GpH7-B3/GpL16-k0 (=100).

B13: GpH7-A5/GpH7-B3 variant K326_15Y/GpL16-k0 (antibody, human IgG1, kappa)
heavy 1: not shown
heavy 2: not shown
light: B1 light
notes: also called He Ab K326_15Y
Regarding B13, the He/Con_3a is 112 % of HeCon Ab GpH7-A5/GpH7-B3/GpL16-k0 (=100).

B14: GpH7-A5/GpH7-B3 variant S298_14T/GpL16-k0 (antibody, human IgG1, kappa)
heavy 1: not shown
heavy 2: not shown
light: B1 light
notes: also called He Ab S298_14T
Consider B14, for which the He/Con_3a was 113 % of HeCon Ab GpH7-A5/GpH7-B3/GpL16-k0 (=100).

B15: GpH7-A5/GpH7-B3 variant K334_05P/GpL16-k0 (antibody, human IgG1, kappa)
heavy 1: not shown
heavy 2: not shown
light: B1 light
notes: also called He Ab K334_05P
For the molecule B15, the He/Con_3a is 134 % of HeCon Ab GpH7-A5/GpH7-B3/GpL16-k0 (=100).

B16: GpH7-A5/GpH7-B3 variant I336_14T/GpL16-k0 (antibody, human IgG1, kappa)
heavy 1: not shown
heavy 2: not shown
light: B1 light
notes: also called He Ab I336_14T
Regarding B16, the He/Con_3a was 108 % of HeCon Ab GpH7-A5/GpH7-B3/GpL16-k0 (=100).

B17: GpH7-A5/GpH7-B3 variant K334_03V/GpL16-k0 (antibody, human IgG1, kappa)
heavy 1: not shown
heavy 2: not shown
light: B1 light
notes: also called He Ab K334_03V
With B17, the He/Con_3a is 150 % of HeCon Ab GpH7-A5/GpH7-B3/GpL16-k0 (=100).

B18: GpH7-A5/GpH7-B3 variant K334_02A/GpL16-k0 (antibody, human IgG1, kappa)
heavy 1: not shown
heavy 2: not shown
light: B1 light
notes: also called He Ab K334_02A
Regarding B18, the He/Con_3a was 147 % of HeCon Ab GpH7-A5/GpH7-B3/GpL16-k0 (=100).

B19: GpH7-A5/GpH7-B3 variant S337_10E/GpL16-k0 (antibody, human IgG1, kappa)
heavy 1: not shown
heavy 2: not shown
light: B1 light
notes: also called He Ab S337_10E
On to B19, for which the He/Con_3a is 105 % of HeCon Ab GpH7-A5/GpH7-B3/GpL16-k0 (=100).

B20: GpH7-A5/GpH7-B3 variant Q295_10E/GpL16-k0 (antibody, human IgG1, kappa)
heavy 1: not shown
heavy 2: not shown
light: B1 light
notes: also called He Ab Q295_10E
For B20, the He/Con_3a was 100 % of HeCon Ab GpH7-A5/GpH7-B3/GpL16-k0 (=100).

B21: GpH7-A5/GpH7-B3 variant S337_18N/GpL16-k0 (antibody, human IgG1, kappa)
heavy 1: not shown
heavy 2: not shown
light: B1 light
notes: also called He Ab S337_18N
On to B21, for which the He/Con_3a was 104 % of HeCon Ab GpH7-A5/GpH7-B3/GpL16-k0 (=100).

B22: GpH7-A5/GpH7-B3 variant K326_09D/GpL16-k0 (antibody, human IgG1, kappa)
heavy 1: not shown
heavy 2: not shown
light: B1 light
notes: also called He Ab K326_09D
For the molecule B22, the He/Con_3a was 134 % of HeCon Ab GpH7-A5/GpH7-B3/GpL16-k0 (=100).

B23: GpH7-A5/GpH7-B3 variant K334_09D/GpL16-k0 (antibody, human IgG1, kappa)
heavy 1: not shown
heavy 2: not shown
light: B1 light
notes: also called He Ab K334_09D
On to B23, for which the He/Con_3a is 160 % of HeCon Ab GpH7-A5/GpH7-B3/GpL16-k0 (=100).

B24: GpH7-A5/GpH7-B3 variant K334_13S/GpL16-k0 (antibody, human IgG1, kappa)
heavy 1: not shown
heavy 2: not shown
light: B1 light
notes: also called He Ab K334_13S
Consider B24, for which the He/Con_3a is 145 % of HeCon Ab GpH7-A5/GpH7-B3/GpL16-k0 (=100).

B25: GpH7-A5/GpH7-B3 variant Q295_02A/GpL16-k0 (antibody, human IgG1, kappa)
heavy 1: not shown
heavy 2: not shown
light: B1 light
notes: also called He Ab Q295_02A
B25: the He/Con_3a was 106 % of HeCon Ab GpH7-A5/GpH7-B3/GpL16-k0 (=100).

B26: GpH7-A5/GpH7-B3 variant K326_04F/GpL16-k0 (antibody, human IgG1, kappa)
heavy 1: not shown
heavy 2: not shown
light: B1 light
notes: also called He Ab K326_04F
Consider B26, for which the He/Con_3a is 103 % of HeCon Ab GpH7-A5/GpH7-B3/GpL16-k0 (=100).

B27: GpH7-A5/GpH7-B3 variant K334_08L/GpL16-k0 (antibody, human IgG1, kappa)
heavy 1: not shown
heavy 2: not shown
light: B1 light
notes: also called He Ab K334_08L
B27: the He/Con_3a was 143 % of HeCon Ab GpH7-A5/GpH7-B3/GpL16-k0 (=100).
